Measured values as given in the supplement of paper PMC10724198.
± gives the standard deviation of the averaged measurements.

Columns and labels:
Saccharomyces cerevisiae [1] = assay: protein stability index of tFT-peptide fusion (C-terminal peptide) (PSI (0-1 scale)); higher = more stable (slower turnover)
Experimental: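 MPS profiling in S. cerevisiae of the tFT-X12 degron library: putative degron peptides plus stable controls, 12 aa, fused to the C-terminus of a sfGFP-mCherry timer. Cells are FACS-sorted into 8 mCherry/sfGFP bins and deep-sequenced. PSI runs from 0 (unstable) to 1 (stable). Backgrounds are wild type, das1Δ and doa10Δ at 30 °C, and wild type, das1Δ, cdc34-1 and cdc53-1 at 37 °C; 2-3 technical replicates each.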

Saccharomyces cerevisiae [2] = assay: as above; settings: genetic background: wild type; temperature: 30 C
[3] = genetic background: cdc34-1, temperature: 37 C
[4] = genetic background: cdc53-1, temperature: 37 C
[5] = genetic background: das1 deletion, temperature: 30 C
[6] = genetic background: das1 deletion, temperature: 37 C
[7] = genetic background: doa10 deletion, temperature: 30 C
[8] = genetic background: wild type, temperature: 30 C
[9] = genetic background: wild type, temperature: 37 C
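Note: PSI is a weighted mean of sequencing reads over stability bins, variants kept only with over 10 reads, mCherry proximal and sfGFP distal, peptide attached via GGGS linker.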

| Sequence | protein stability index (Saccharomyces cerevisiae [1]; [3]) | protein stability index (Saccharomyces cerevisiae [1]; [4]) | protein stability index (Saccharomyces cerevisiae [1]; [5]) | protein stability index (Saccharomyces cerevisiae [1]; [6]) | protein stability index (Saccharomyces cerevisiae [1]; [7]) | protein stability index (Saccharomyces cerevisiae [1]; [8]) | protein stability index (Saccharomyces cerevisiae [1]; [9]) | protein stability index (Saccharomyces cerevisiae [2]) |
| --- | --- | --- | --- | --- | --- | --- | --- | --- |
| CVFVRCVDCMSG | 0.553 ± 0.013 | 0.544 ± 0.041 | 0.384 ± 0.031 | 0.594 ± 0.0081 | 0.354 ± 0.034 | 0.387 ± 0.015 | 0.579 ± 0.0085 | 0.465 ± 0.024 |
| CVLGWCSLIAWC | 0.201 ± 0.044 | 0.238 ± 0.032 | 0.234 ± 0.015 | 0.231 ± 0.011 | 0.245 ± 0.025 | 0.242 ± 0.0093 | 0.1967 ± 0.0017 | 0.284 ± 0.018 |
| CWLFVWVRVISL | 0.0995 ± 0.049 | 0.118 ± 0.01 | 0.155 ± 0.038 | 0.23174 ± 3.6e-05 | 0.103 ± 0.024 | 0.12 ± 0.033 | 0.158 ± 0.018 | 0.186 ± 0.033 |
| DCLSFVLFLFLC | 0.203 ± 0.038 | 0.259 ± 0.015 | 0.239 ± 0.025 | 0.39151 ± 0.00036 | 0.149 ± 0.007 | 0.134 ± 0.022 | 0.149 ± 0.0066 | 0.183 ± 0.017 |
| DFCCGVILTCVC | 0.0751 ± 0.0081 | 0.106 ± 0.011 | 0.191 ± 0.025 | 0.233 ± 0.0083 | 0.156 ± 0.012 | 0.184 ± 0.019 | 0.193 ± 0.023 | 0.279 ± 0.01 |
| DGGHLVGHDLFY | 0.716 ± 0.023 | 0.747 ± 0.023 | 0.656 ± 0.023 | 0.758 ± 0.032 | 0.657 ± 0.016 | 0.664 ± 0.053 | 0.78 ± 0.0091 | 0.727 ± 0.024 |
| DIGCLWSKTRLC | 0.669 ± 0.019 | 0.7585 ± 0.0073 | 0.652 ± 0.0094 | 0.763 ± 0.015 | 0.324 ± 0.022 | 0.359 ± 0.017 | 0.6042 ± 0.0039 | 0.431 ± 0.12 |
| DILQITNIKQKR | 0.71 ± 0.041 | 0.741 ± 0.015 | 0.676 ± 0.038 | 0.731 ± 0.021 | 0.654 ± 0.014 | 0.654 ± 0.014 | 0.722 ± 0.039 | 0.572 ± 0.16 |
| DVHPLFYCIPVY | 0.0345 ± 0.018 | 0.0286 ± 0.016 | 0.101 ± 0.037 | 0.0568 ± 0.014 | 0.0881 ± 0.0095 | 0.101 ± 0.02 | 0.0474 ± 0.03 | 0.13922 ± 3.4e-05 |
| FAIPFVLFFRVT | 0.161 ± 0.02 | 0.134 ± 0.0062 | 0.257 ± 0.03 | 0.333 ± 0.017 | 0.2593 ± 0.0021 | 0.173 ± 0.024 | 0.231 ± 0.013 | 0.224 ± 0.07 |
| FASALAPLSAVA | 0.48 ± 0.014 | 0.494 ± 0.022 | 0.366 ± 0.044 | 0.529 ± 0.001 | 0.307 ± 0.0091 | 0.358 ± 0.036 | 0.509 ± 0.0079 | 0.4002 ± 0.0029 |
| FCASCLVCFIYL | 0.492 ± 0.0074 | 0.501 ± 0.0053 | 0.426 ± 0.024 | 0.5207 ± 0.0051 | 0.444 ± 0.026 | 0.421 ± 0.031 | 0.517 ± 0.019 | 0.462 ± 0.023 |
| FCCWCVCFGYSG | 0.575 ± 0.093 | 0.604 ± 0.013 | 0.395 ± 0.019 | 0.582 ± 0.0089 | 0.372 ± 0.02 | 0.394 ± 0.025 | 0.549 ± 0.007 | 0.443 ± 0.0049 |
| FCFCLVLRVFLG | 0.118 ± 0.0026 | 0.171 ± 0.011 | 0.154 ± 0.03 | 0.272 ± 0.0093 | 0.172 ± 0.011 | 0.162 ± 0.024 | 0.222 ± 0.014 | 0.253 ± 0.034 |
| FCFFSMGFVLAL | 0.3489 ± 0.00089 | 0.365 ± 0.0065 | 0.334 ± 0.0061 | 0.45 ± 0.017 | 0.289 ± 0.0053 | 0.314 ± 0.017 | 0.422 ± 0.026 | 0.453 ± 0.072 |
| FCIIVFYIFVGI | 0.451 ± 0.061 | 0.506 ± 0.078 | 0.342 ± 0.027 | 0.48 ± 0.077 | 0.323 ± 0.024 | 0.333 ± 0.022 | 0.486 ± 0.042 | 0.382 ± 0.041 |
| FCLMLWGAVLFL | 0.216 ± 0.014 | 0.29 ± 0.0077 | 0.235 ± 0.019 | 0.364 ± 0.047 | 0.226 ± 0.015 | 0.223 ± 0.03 | 0.33 ± 0.0042 | 0.314 ± 0.025 |
| FCVLLFFFPLII | 0.272 ± 0.012 | 0.293 ± 0.04 | 0.271 ± 0.029 | 0.402 ± 0.0046 | 0.376 ± 0.037 | 0.261 ± 0.015 | 0.374 ± 0.012 | 0.363 ± 0.024 |
| FEVLINIWFLSA | 0.272 ± 0.028 | 0.388 ± 0.026 | 0.3 ± 0.042 | 0.422 ± 0.0066 | 0.185 ± 0.011 | 0.19 ± 0.018 | 0.324 ± 0.013 | 0.262 ± 0.019 |
| FFACSLLFVLVF | 0.0985 ± 0.0033 | 0.175 ± 0.022 | 0.177 ± 0.022 | 0.27 ± 0.0076 | 0.1392 ± 0.0012 | 0.17 ± 0.027 | 0.226 ± 0.014 | 0.228 ± 0.0075 |

| Sequence | protein stability index (Saccharomyces cerevisiae [1]; [3]) | protein stability index (Saccharomyces cerevisiae [1]; [4]) | protein stability index (Saccharomyces cerevisiae [1]; [5]) | protein stability index (Saccharomyces cerevisiae [1]; [6]) | protein stability index (Saccharomyces cerevisiae [1]; [7]) | protein stability index (Saccharomyces cerevisiae [1]; [8]) | protein stability index (Saccharomyces cerevisiae [1]; [9]) | protein stability index (Saccharomyces cerevisiae [2]) |
| --- | --- | --- | --- | --- | --- | --- | --- | --- |
| FFAIFSLLLSFT | 0.449 ± 0.015 | 0.482 ± 0.0083 | 0.401 ± 0.028 | 0.532 ± 0.012 | 0.399 ± 0.007 | 0.4 ± 0.014 | 0.527 ± 0.0072 | 0.459 ± 0.026 |
| FFALYGHILGLF | 0.702 ± 0.02 | 0.7821 ± 0.0041 | 0.611 ± 0.023 | 0.7525 ± 0.0025 | 0.472 ± 0.028 | 0.491 ± 0.016 | 0.685 ± 0.052 | 0.4957 ± 0.0022 |
| FFFPFLCIAVSL | 0.464 ± 0.036 | 0.474 ± 0.016 | 0.418 ± 0.034 | 0.472 ± 0.0053 | 0.4007 ± 0.0018 | 0.413 ± 0.018 | 0.436 ± 0.011 | 0.458 ± 0.022 |
| FFICCPLLVVCS | 0.0277 ± 0.012 | 0.0453 ± 0.027 | 0.091 ± 0.022 | 0.0716 ± 0.018 | 0.064 ± 0.016 | 0.0665 ± 0.035 | 0.0677 ± 0.021 | 0.109 ± 0.041 |
| FFILVFFSLLST | 0.2927 ± 0.0014 | 0.445 ± 0.018 | 0.283 ± 0.049 | 0.441 ± 0.032 | 0.244 ± 0.041 | 0.274 ± 0.033 | 0.4056 ± 0.0022 | 0.404 ± 0.032 |
| FFLFILYFGSCF | 0.358 ± 0.025 | 0.422 ± 0.0051 | 0.349 ± 0.034 | 0.481 ± 0.0073 | 0.362 ± 0.017 | 0.329 ± 0.012 | 0.448 ± 0.017 | 0.399 ± 0.029 |
| FFLFLVCLFFFS | 0.405 ± 0.016 | 0.36 ± 0.1 | 0.358 ± 0.032 | 0.487 ± 0.011 | 0.36 ± 0.049 | 0.355 ± 0.031 | 0.4333 ± 0.0037 | 0.37 ± 0.026 |
| FFLLSVVLKYSV | 0.0374 ± 0.0046 | 0.08659 ± 0.00036 | 0.103 ± 0.029 | 0.174 ± 0.0019 | 0.093 ± 0.021 | 0.0922 ± 0.021 | 0.14 ± 0.0075 | 0.19 ± 0.015 |
| FFRFNCVFWLFL | 0.509 ± 0.0099 | 0.551 ± 0.033 | 0.443 ± 0.021 | 0.604 ± 0.034 | 0.211 ± 0.0028 | 0.233 ± 0.016 | 0.428 ± 0.053 | 0.3129 ± 0.0019 |
| FFRLFAPLLVVL | 0.113 ± 0.02 | 0.0677 ± 0.015 | 0.188 ± 0.028 | 0.23 ± 0.033 | 0.2621 ± 0.0019 | 0.178 ± 0.019 | 0.1836 ± 0.0014 | 0.212 ± 0.01 |
| FFSQLFLEIVAA | 0.0642 ± 0.024 | 0.0709 ± 0.031 | 0.179 ± 0.03 | 0.196 ± 0.011 | 0.14 ± 0.018 | 0.175 ± 0.029 | 0.171 ± 0.027 | 0.257 ± 0.031 |
| FFVFSFVLFFPL | 0.347 ± 0.0076 | 0.427 ± 0.054 | 0.305 ± 0.046 | 0.456 ± 0.025 | 0.307 ± 0.006 | 0.322 ± 0.029 | 0.444 ± 0.022 | 0.369 ± 0.049 |
| FFVLGPVVMSIH | 0.278 ± 0.046 | 0.383 ± 0.032 | 0.285 ± 0.031 | 0.423 ± 0.02 | 0.2657 ± 0.0021 | 0.266 ± 0.038 | 0.4054 ± 0.0027 | 0.3849 ± 0.0033 |
| FFVYFFLLLFWF | 0.171 ± 0.015 | 0.0838 ± 0.023 | 0.213 ± 0.029 | 0.233 ± 0.027 | 0.272 ± 0.028 | 0.188 ± 0.015 | 0.196 ± 0.0034 | 0.208 ± 0.0049 |
| FGARCSLSPLVT | 0.7249 ± 0.0062 | 0.753 ± 0.017 | 0.618 ± 0.014 | 0.7463 ± 0.0025 | 0.639 ± 0.035 | 0.652 ± 0.019 | 0.6977 ± 0.0039 | 0.547 ± 0.1 |
| FGCLFILRCSFL | 0.429 ± 0.047 | 0.487 ± 0.00067 | 0.349 ± 0.035 | 0.5384 ± 0.00075 | 0.29 ± 0.0031 | 0.304 ± 0.026 | 0.4966 ± 0.0043 | 0.422 ± 0.0099 |
| FGKGRSLLLVFS | 0.548 ± 0.02 | 0.597 ± 0.022 | 0.378 ± 0.044 | 0.582 ± 0.0092 | 0.347 ± 0.015 | 0.395 ± 0.013 | 0.5765 ± 0.0039 | 0.475 ± 0.016 |
| FGRAVWSRFCIV | 0.604 ± 0.044 | 0.735 ± 0.029 | 0.601 ± 0.0099 | 0.736 ± 0.0076 | 0.13 ± 0.015 | 0.128 ± 0.03 | 0.177 ± 0.032 | 0.172 ± 0.064 |
| FGVLLLFLFFLP | 0.347 ± 0.0038 | 0.444 ± 0.02 | 0.337 ± 0.022 | 0.4673 ± 0.0036 | 0.322 ± 0.0086 | 0.323 ± 0.0085 | 0.427 ± 0.0068 | 0.413 ± 0.041 |
